The values below are quoted from earlier work in PMC6120632.

The target of this data set is Basigin (Homo sapiens) (UniProt P35613).
Chain of UniProt P35613 (P35613 22-325): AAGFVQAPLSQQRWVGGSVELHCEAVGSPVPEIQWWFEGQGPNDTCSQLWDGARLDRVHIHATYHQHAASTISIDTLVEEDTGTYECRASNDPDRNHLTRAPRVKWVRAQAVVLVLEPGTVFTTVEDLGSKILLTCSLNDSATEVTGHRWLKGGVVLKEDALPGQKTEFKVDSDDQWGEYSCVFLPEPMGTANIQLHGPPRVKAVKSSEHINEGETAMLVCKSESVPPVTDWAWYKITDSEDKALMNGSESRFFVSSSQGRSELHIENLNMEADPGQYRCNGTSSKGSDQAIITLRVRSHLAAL

The term Kd denotes the equilibrium constant for the complex coming apart. For RH5 (from UniProt Q8IFM5), the Kd was 1000 nM.
